Results: publication PMC6625990, “Structural underpinnings of Ric8A function as a G-protein α-subunit chaperone and guanine-nucleotide exchange factor” (Nature Communications, 2019)
Changes are numbered by the printed parent chain. Names may count otherwise. Read-outs that look alike come from different tables or passages of the source. Each block holds one molecule with its values, some of them ahead of it.

How the values were obtained:
Gαi = assay: GTPγS binding to Gαi (GDP/GTPγS exchange, GEF activity of Ric8A constructs); assay type: biochemical; details: for Rate of GDP/GTPγS exchange reaction on Gαi, mean: Gαi 1 µM, GDP 1 µM, Ric8A construct 1 µM, GTPγS 10 µM, 20 mM Tris-HCl pH 8.0, 150 mM NaCl, 5% glycerol, 1 mM TCEP, 10 mM MgCl2, tryptophan fluorescence ex 295 nm, em 340 nm, one phase association fit; for Rate of GDP/GTPγS exchange reaction on Gαi: same conditions
Protocol: The rates of GTPγS binding to Gαi in the absence or presence of Ric8A1–492 (Ric8A1–452) were measured by following the increase in fluorescence of Gαi tryptophan. Gαi (1 µM) was mixed with GDP (1 µM) in a fluorescence cuvette, in 20 mM Tris-HCl (pH 8.0) buffer containing 150 mM NaCl, 5% glycerol, 1 mM TCEP and 10 mM MgCl2, and incubated for 2 min. The binding reaction was initiated by addition of Ric8A1–492 or Ric8A1–452 (1 µM each) and/or and GTPγs (10 µM). Fluorescence at 340 nm was monitored with the excitation set at 295 nm. Data were fit to an equation for one phase association using the GraphPad Prism 7.05 software.

Gαt333–350 = assay: BLI: Ric8A1–492 and its mutants binding to biotinylated Gαt333–350; details: for Kd: BLI steady state, source data
Protocol: (§1) An Octet RED96 system and streptavidin (SA)-coated biosensors (FortéBio, Menlo Park, CA) were used to measure association and dissociation kinetics for Gα peptides or the full-length Avi-tagged Gαt in relation to Ric8A1–492, Ric8A1–452, and Ric8A1–426. To obtain the Avi-tagged Gαt, Gαt was cloned into modified pET21a vector with the N-terminal His6-tag followed by the Avi tag and TEV cleavage site[59]. The Avi-tagged I340Q/N343H mutant of Gαt was prepared by QuikChange protocol. BL21(DE3) cells for expression of the Avi-tagged Gαt were grown in 2TY media supplemented with biotin (10 mg/liter), induced at OD600 of 0.6 with 50 µM IPTG and further grown overnight at 16 °C. Binding studies were performed in 20 mM Tris, 150 mM KCl, 5% glycerol, 1 mM TCEP, 0.5 mg/ml BSA, pH 8.0. All steps were performed at 26 °C, with biosensors stirred into 0.2 ml of sample in each well at 1000 rpm, and at a data acquisition rate of 5.0 Hz. N-terminally biotinylated Gαt333–350, Gαs363–380, C1 peptide and C2 peptide were loaded onto SA sensors at a concentration of 0.05, 0.05, 0.005, and 0.01 mg/ml for 40–90 seconds. Data for association and dissociation phases of the assay were collected as shown in Fig. 1b and Supplementary Figs. 8, 11, 12, and 14. To correct for baseline drift and non-specific binding, reference sensors lacking bound Gα peptide were used in the BLI assays with Ric8A proteins at the highest concentrations. Kinetic data fitting was performed using FortéBio Data Analysis software 10.0. For each concentration of Ric8A1–492, dissociation rate constant (kd) values were calculated from the corresponding dissociation phases of the curves. These kd values were used to calculate the association rate constant (ka) values from the association phases for each concentration according to the equation1 ka=kobserved-kd∕Ric8A1-492 The average ka and kd were calculated as means of the individual ka and kd values for all curves. Equilibrium dissociation constant KD was calculated as mean kd/mean ka. Steady-state data fitting was performed using the GraphPad Prism 7 software with the equation for one site specific binding.

Gαt [1] = assay: BLI: Ric8A1–492 and its mutants binding to full-length Avi-tagged Gαt; details: BLI steady state, source data
Protocol: as §1

[2] = DSF thermostability of Ric8A constructs and Ric8A1–492 mutants (protein alone); assay type: physicochemical, bovine; details: DSF; for Tm: Sypro Orange, protein alone 0.5 mg/ml, 20 mM Tris-HCl pH 7.5, 150 mM KCl, 5% glycerol, 1 mM TCEP, 1 °C/minute, mean ± SD (n = 3); for mean Tm / Tm (C ): protein alone, source data; for mean Tm: mean of replicates
Protocol: Stabilities of Ric8A constructs with and without peptide ligands were assessed using differential scanning fluorimetry (DSF), in which an increase in fluorescence of the Sypro Orange dye is measured. Ric8A1–492, Ric8A1–452 and Ric8A1–426 in 20 mM Tris-HCl (pH 7.5) buffer containing 150 mM KCl, 5% glycerol, and 1 mM TCEP with and without peptide were used at a final concentration of 0.5 mg/ml and were supplemented with a 1000-fold dilution of Sypro Orange dye (Invitrogen). Temperature was increased at 1 °C/minute and fluorescence signals were recorded using real-time PCR (C1000 Touch thermal cycler, Bio Rad), with the cycler set to FRET mode and the excitation wavelength set at 450–490 nm and the emission wavelength at 560–580 nm.

Gαt [3] = assay: SEC co-migration of Ric8A1–492 R75M mutant with full-length Gαt; assay type: binding
Protocol: Ric8A1–492/miniGαi complex was prepared by mixing Ric8A with miniGαi at a 1:1.5 molar ratio. The complex was purified by SEC using a HiLoad 16/600 Superdex 200 pg column equilibrated with 20 mM Tris-HCl (pH 8.0) buffer containing 150 mM KCl, 5% glycerol, and 1 mM TCEP. This procedure removed excess miniGαi, ensuring 1:1 stoichiometry of the complex. Ric8A1–492/Gαt complexes were purified by mixing Ric8A1–492 with Gαt (1:1.5 molar ratio), followed by SEC using Superdex 200 10/300 GL column (GE healthcare) to remove excess Gαt. […]
with Gαt. (A) Ric8A1-492 was mixed with Gαt and loaded onto a MW-calibrated Superdex 200 10/300 column. SEC profile - black curve. Blue curve and a gel in the inset with a blue outline represent SEC profile of Ric8A1-492 alone. Red curve and a gel in the inset with a red outline represent SEC profile of Gαt alone. (B) Peak fractions in A analyzed by SDS-PAGE. Peak 1 containing the Ric8A1-492/Gαt complex is not fully resolved from peak 2 corresponding to Ric8A1-492 alone. (C) The R75M mutant of Ric8A1-492 was mixed with Gαt and loaded onto a MW-calibrated Superdex 200 16/600 column. SEC profile - black curve. Blue line and a gel in inset represent SEC profile of R75M alone. Red curve – SEC profile of Gαt alone. (D) Peak fractions in C analyzed by SDS-PAGE. […]

- Rate of GDP/GTPγS exchange reaction on Gαi, mean (Gαi): 0.3229
- Rate of GDP/GTPγS exchange reaction on Gαi (Gαi; replicate 1): 0.2658
- Rate of GDP/GTPγS exchange reaction on Gαi (Gαi; replicate 2): 0.38
- Kd (Gαt333–350; experiment 1, read-out: KD (uM), Gαt333-350): 0.27 µM
- Kd (Gαt333–350; experiment 2, read-out: KD (uM), Gαt333-350): 0.33 µM
- Kd (Gαt333–350; experiment 3, read-out: KD (uM), Gαt333-350): 0.33 µM
- Kd (Gαt333–350; experiment 4, read-out: KD (uM), Gαt333-350): 0.19 µM
- Kd (Gαt333–350; mean of replicates, read-out: Mean KD, Gαt333-350): 0.28 µM
- Kd (Gαt333–350; representative experiment, read-out: KD, steady-state curve of Figure 1c): 0.27 µM
- Kd (Gαt [1]; experiment 1, read-out: KD (nM), Gαt): 22.6 nM
- Kd (Gαt [1]; experiment 2, read-out: KD (nM), Gαt): 27 nM
- Kd (Gαt [1]; experiment 3, read-out: KD (nM), Gαt): 23.1 nM
- Kd (Gαt [1]; mean of replicates, read-out: mean KD, Gαt): 24.2 nM
B1: Ric8A1–492: bovine Ric8A construct truncated at the C-terminus (residues 1–492) (protein)
chain: MEPRAVADALETGEEDVVMEALRAYNRENSQSFTFDDAQQEDRKRLAKLLVSVLEQGLPPSRRVIWLQSIRILSRDRSCLDSFTSRRSLQALACYAGISASQGSVPEPLNMDVVLESLKCLCNLVLSSPVAQALAAEAGLVVRLAERVGLCRQSSFPHDVQFFDLRLLFLLTALRTDVRQQLFQELQGVRLLTRALELTLGMTEGERHPELLPPQETERAMEILKVLFNITFDSIKREVDEEDAALYRHLGTLLRHCVMLAAAGDRTEELHGHAVNLLGNLPVKCLDVLLTLEPHEGSLEFLGVNMDVIRVLLSFMEKRLHQTHRLKESVAPVLSVLTECARMHRPARKFLKAQVLPPLRDVRTRPEVGELLRNKLVRLMTHLDTDVKRVAAEFLFVLCSESVPRFIKYTGYGNAAGLLAARGLMAGGRPEGQYSEDEDTDTDEYKEAKASINPVTGRVEEKPPNPMEGMTEEQKEHEAMKLVNMFDKLSRH
modifications: left off: His6, N-terminal, state not stated
- Tm [2]: 46.8 ± 0.2 °C
- mean Tm [2]: 46.8 C
- Tm (C ) ([2]; replicate 1): 46.9 C
- Tm (C ) ([2]; replicate 2): 46.96 C
- Tm (C ) ([2]; replicate 3): 46.7 C

- binding to Gαt333–350 (in words) (Gαt333–350; BLI): ablated the binding
B2: R75M: R75M mutant of Ric8A1–492 (protein, UniProt Q5E9J8 1-492, looked up, variant R75M)
chain: B1 chain with R75M
modifications: residues 1-492
- interaction with full-length Gαt (in words) (Gαt [3]): disruption of the interaction
- mean Tm [2]: 45.9 C
- Tm (C ) ([2]; replicate 1): 45.86 C
- Tm (C ) ([2]; replicate 2): 45.81 C
- Tm (C ) ([2]; replicate 3): 45.88 C
- Tm (C ) ([2]; replicate 4): 45.96 C

- Rate of GDP/GTPγS exchange reaction on Gαi, mean (Gαi): 0.03238
- Rate of GDP/GTPγS exchange reaction on Gαi (Gαi; replicate 1): 0.03221
- Rate of GDP/GTPγS exchange reaction on Gαi (Gαi; replicate 2): 0.04368
- Rate of GDP/GTPγS exchange reaction on Gαi (Gαi; replicate 3): 0.02126
B3: Ric8A1–452: bovine Ric8A construct, residues 1–452 (protein)
chain: MEPRAVADALETGEEDVVMEALRAYNRENSQSFTFDDAQQEDRKRLAKLLVSVLEQGLPPSRRVIWLQSIRILSRDRSCLDSFTSRRSLQALACYAGISASQGSVPEPLNMDVVLESLKCLCNLVLSSPVAQALAAEAGLVVRLAERVGLCRQSSFPHDVQFFDLRLLFLLTALRTDVRQQLFQELQGVRLLTRALELTLGMTEGERHPELLPPQETERAMEILKVLFNITFDSIKREVDEEDAALYRHLGTLLRHCVMLAAAGDRTEELHGHAVNLLGNLPVKCLDVLLTLEPHEGSLEFLGVNMDVIRVLLSFMEKRLHQTHRLKESVAPVLSVLTECARMHRPARKFLKAQVLPPLRDVRTRPEVGELLRNKLVRLMTHLDTDVKRVAAEFLFVLCSESVPRFIKYTGYGNAAGLLAARGLMAGGRPEGQYSEDEDTDTDEYKEAKASI
modifications: left off: His6, N-terminal, state not stated
- Tm [2]: 45.5 ± 0.1 °C
- Tm ([2]; listed as Ric8A1-452): 45.5 °C
